Measured values: US20140065128A1

Columns and labels:
[1] = molecular target: Human IgE in whole blood of healthy volunteers (on basophils); test: cell-based or functional assay
[2] = molecular target: Human myeloma IgE (human) (UniProt P01854); test: SPR (BIAcore 2000, 25 C): GST-EndoS (E235Q) amine-coupled to a CM5 chip, human myeloma IgE injected at 10-1.25 ug/ml; 1:1 Langmuir fit, KD from mean rate constants

Row | Substance | CD203c+ cells among CD123+, HLA-DR- basophils after chicken anti-IgE stimulation of whole blood (FACS); untreated blood 83% [1] | Kd [2]
1 | GST-EndoS (enzymatically active) (from UniProt Q99Y92 37-995) (enzyme) | 15% | –
2 | GST-EndoS (E235Q), enzymatically inactive form of EndoS from Streptococcus pyogenes (from UniProt Q99Y92 37-995) (enzyme) | – | 133 nM
